Measured values reported in paper PMC9482650, “Quantitative fragmentomics allow affinity mapping of interactomes” (Nature Communications, 2022).
Blank lines part the entries; values can stand above or below the binder they belong to.

Assays:
Experiment in all cases: holdup assay
Parameters in all cases: key: below the threshold = too weak to quantify, mostly under pKd 3.1 to 4
[1] = molecular target: T1, APBA2_2, Q99767
T1 sequence (Q99767 654-744, limits assumed, looked up): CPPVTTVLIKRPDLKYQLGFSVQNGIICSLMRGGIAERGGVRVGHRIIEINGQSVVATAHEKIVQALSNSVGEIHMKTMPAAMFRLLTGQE

[2] = molecular target: ARHGEF12, Q9NZN5-2
ARHGEF12, Q9NZN5-2, sequence (Q9NZN5 other isoform, or with tags, fused parts or gaps): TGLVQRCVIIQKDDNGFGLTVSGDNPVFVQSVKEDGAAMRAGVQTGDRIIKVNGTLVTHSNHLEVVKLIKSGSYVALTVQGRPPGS

[3] = molecular target: T2, CARD11, Q9BXL7
T2 sequence (Q9BXL7 662-765, limits assumed, looked up): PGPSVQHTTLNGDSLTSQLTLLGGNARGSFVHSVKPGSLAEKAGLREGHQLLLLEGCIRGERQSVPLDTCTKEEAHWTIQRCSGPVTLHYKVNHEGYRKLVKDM

[4] = molecular target: CASK, O14936
CASK, O14936, sequence (O14936 487-570): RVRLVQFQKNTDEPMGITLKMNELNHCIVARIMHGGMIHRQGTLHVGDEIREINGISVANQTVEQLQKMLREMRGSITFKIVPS

[5] = molecular target: T3, DFNB31_1, Q9P202
T3 sequence (Q9P202 135-233, limits assumed, looked up): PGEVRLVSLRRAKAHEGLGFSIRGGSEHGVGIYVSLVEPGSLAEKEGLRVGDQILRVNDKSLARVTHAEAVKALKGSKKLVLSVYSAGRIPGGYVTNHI

[6] = molecular target: FRMPD2_2, Q68DX3
FRMPD2_2, Q68DX3, sequence (Q68DX3 944-1038): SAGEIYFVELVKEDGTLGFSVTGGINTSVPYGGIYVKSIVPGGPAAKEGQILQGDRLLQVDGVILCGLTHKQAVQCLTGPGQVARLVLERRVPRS

[7] = molecular target: GRID2IP_1, A4D2P6
GRID2IP_1, A4D2P6, sequence (A4D2P6 1-87): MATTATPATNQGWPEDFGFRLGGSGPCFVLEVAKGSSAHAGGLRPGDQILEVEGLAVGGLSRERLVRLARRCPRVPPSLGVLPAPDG

[8] = molecular target: GRID2IP_2, A4D2P6
GRID2IP_2, A4D2P6, sequence (A4D2P6 272-370): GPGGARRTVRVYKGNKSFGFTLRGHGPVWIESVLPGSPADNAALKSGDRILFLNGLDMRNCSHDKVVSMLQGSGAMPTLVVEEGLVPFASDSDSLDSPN

[9] = molecular target: T4, GRIP1_2, Q9Y3R0
T4 sequence (Q9Y3R0 145-248, limits assumed, looked up): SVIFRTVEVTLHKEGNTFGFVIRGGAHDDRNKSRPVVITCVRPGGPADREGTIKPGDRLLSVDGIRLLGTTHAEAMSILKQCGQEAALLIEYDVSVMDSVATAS

[10] = molecular target: T5, GRIP1_3, Q9Y3R0
T5 sequence (Q9Y3R0 247-346, limits assumed, looked up): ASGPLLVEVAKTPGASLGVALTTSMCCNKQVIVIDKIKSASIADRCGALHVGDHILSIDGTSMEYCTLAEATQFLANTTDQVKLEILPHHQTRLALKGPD

[11] = molecular target: T6, GRIP1_7, Q9Y3R0
T6 sequence (Q9Y3R0 999-1096, limits assumed, looked up): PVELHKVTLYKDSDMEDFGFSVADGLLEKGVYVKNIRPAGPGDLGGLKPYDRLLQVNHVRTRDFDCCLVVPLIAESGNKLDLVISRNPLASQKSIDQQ

[12] = molecular target: GRIP2_4, Q9C0E4
GRIP2_4, Q9C0E4, sequence (Q9C0E4 446-548): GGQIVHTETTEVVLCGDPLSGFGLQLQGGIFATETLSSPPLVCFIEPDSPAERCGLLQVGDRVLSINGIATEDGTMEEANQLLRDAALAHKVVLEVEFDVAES

[13] = molecular target: IL16_1, Q14005
IL16_1, Q14005, sequence (Q14005 210-306): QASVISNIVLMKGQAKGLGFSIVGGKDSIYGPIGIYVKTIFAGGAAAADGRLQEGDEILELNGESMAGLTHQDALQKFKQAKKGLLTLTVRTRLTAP

[14] = molecular target: Inadl_6, Q8NI35
Inadl_6, Q8NI35, sequence (Q8NI35 1058-1167): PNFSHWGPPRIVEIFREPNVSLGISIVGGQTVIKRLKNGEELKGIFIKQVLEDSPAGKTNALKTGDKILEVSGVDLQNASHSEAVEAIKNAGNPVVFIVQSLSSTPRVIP

[15] = molecular target: Inadl_9, Q8NI35
Inadl_9, Q8NI35, sequence (Q8NI35 1530-1615): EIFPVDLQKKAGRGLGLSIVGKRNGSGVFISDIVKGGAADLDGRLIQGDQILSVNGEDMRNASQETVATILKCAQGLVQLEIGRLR

[16] = molecular target: LIMK2, P53671
LIMK2, P53671, sequence (P53671 143-248): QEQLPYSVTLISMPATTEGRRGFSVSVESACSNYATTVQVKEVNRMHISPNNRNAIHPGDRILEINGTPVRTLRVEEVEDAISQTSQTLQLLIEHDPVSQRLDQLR

[17] = molecular target: LNX1_2, Q8TBB1
LNX1_2, Q8TBB1, sequence (Q8TBB1 371-470): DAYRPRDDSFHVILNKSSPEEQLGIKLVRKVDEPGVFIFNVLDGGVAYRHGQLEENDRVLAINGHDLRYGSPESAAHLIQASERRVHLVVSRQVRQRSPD

[18] = molecular target: T7, LNX2_3, Q8N448
T7 sequence (Q8N448 463-564, limits assumed, looked up): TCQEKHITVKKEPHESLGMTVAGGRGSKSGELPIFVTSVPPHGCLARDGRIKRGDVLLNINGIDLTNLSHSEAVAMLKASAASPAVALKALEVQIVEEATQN

[19] = molecular target: MAGI1_1, Q96QZ7
MAGI1_1, Q96QZ7, sequence (Q96QZ7 1-106): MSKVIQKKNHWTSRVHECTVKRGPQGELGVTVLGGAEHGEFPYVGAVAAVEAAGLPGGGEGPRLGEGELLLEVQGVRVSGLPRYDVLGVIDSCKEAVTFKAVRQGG

[20] = molecular target: MAGI2_2, Q86UL8
MAGI2_2, Q86UL8, sequence (Q86UL8 410-522): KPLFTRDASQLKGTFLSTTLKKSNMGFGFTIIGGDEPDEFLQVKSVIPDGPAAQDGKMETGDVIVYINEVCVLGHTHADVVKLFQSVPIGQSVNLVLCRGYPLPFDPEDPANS

[21] = molecular target: MAGI2_5, Q86UL8
MAGI2_5, Q86UL8, sequence (Q86UL8 915-1017): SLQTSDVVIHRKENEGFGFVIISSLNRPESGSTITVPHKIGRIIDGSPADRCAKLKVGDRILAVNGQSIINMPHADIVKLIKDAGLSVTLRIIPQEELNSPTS

[22] = molecular target: T8, MPDZ_12, O75970
T8 sequence (O75970 1857-1958, limits assumed, looked up): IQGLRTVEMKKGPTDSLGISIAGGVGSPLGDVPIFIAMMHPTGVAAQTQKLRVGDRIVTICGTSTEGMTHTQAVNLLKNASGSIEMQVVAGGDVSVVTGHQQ

[23] = molecular target: T9, NHERF3_3, Q5T2W1
T9 sequence (Q5T2W1 238-333, limits assumed, looked up): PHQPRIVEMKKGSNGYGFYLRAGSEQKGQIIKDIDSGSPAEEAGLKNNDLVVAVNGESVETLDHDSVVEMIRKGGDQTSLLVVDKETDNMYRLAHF

[24] = molecular target: NHERF4_4, Q86UT5
NHERF4_4, Q86UT5, sequence (Q86UT5 464-550): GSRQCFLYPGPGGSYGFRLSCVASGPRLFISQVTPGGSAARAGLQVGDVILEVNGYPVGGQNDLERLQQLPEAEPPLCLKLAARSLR

[25] = molecular target: PDLIM1, O00151
PDLIM1, O00151, sequence (O00151 1-87): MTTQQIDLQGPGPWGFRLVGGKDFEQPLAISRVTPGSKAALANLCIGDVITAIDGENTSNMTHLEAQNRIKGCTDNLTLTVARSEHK

[26] = molecular target: T10, RADIL, Q96JH8
T10 sequence (Q96JH8 971-1071, limits assumed, looked up): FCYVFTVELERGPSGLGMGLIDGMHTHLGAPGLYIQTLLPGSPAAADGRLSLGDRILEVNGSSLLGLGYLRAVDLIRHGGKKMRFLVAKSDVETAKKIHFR

[27] = molecular target: T11, SIPA1L2, Q9P2F8
T11 sequence (Q9P2F8 945-1036, limits assumed, looked up): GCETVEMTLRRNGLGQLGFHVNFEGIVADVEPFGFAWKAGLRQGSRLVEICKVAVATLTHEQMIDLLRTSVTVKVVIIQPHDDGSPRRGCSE

[28] = plain residues with an end cap or a label only (N-terminal biotin on a linker: ado-ado)
[29] = plain residues with an end cap or a label only (N-terminal biotin on a linker: ahx)

pKd [1, 28]: below the threshold
pKd [2, 28]: 5.03
pKd [3, 28]: below the threshold
pKd [4, 28]: below the threshold
pKd [5, 28]: 3.6
pKd [6, 28]: below the threshold
pKd [7, 28]: below the threshold
pKd [8, 28]: 4.46
pKd [9, 28]: below the threshold
pKd [10, 28]: below the threshold
pKd [11, 28]: below the threshold
pKd [12, 28]: below the threshold
pKd [13, 28]: below the threshold
pKd [14, 28]: 3.87
pKd [15, 28]: below the threshold
pKd [16, 28]: below the threshold
pKd [17, 28]: below the threshold
pKd [18, 28]: below the threshold
pKd [19, 28]: 3.5
pKd [20, 28]: below the threshold
pKd [21, 28]: 4.4
pKd [22, 28]: below the threshold
pKd [23, 28]: below the threshold
pKd [24, 28]: below the threshold
pKd [25, 28]: 3.59
pKd [26, 28]: below the threshold
pKd [27, 28]: below the threshold
Binder: EEPEERHTEL [CES2, O00748]

pKd [1, 29]: below the threshold
pKd [2, 29]: 3.71
pKd [3, 29]: below the threshold
pKd [4, 29]: below the threshold
pKd [5, 29]: 3.86
pKd [6, 29]: 4.4
pKd [7, 29]: below the threshold
pKd [8, 29]: below the threshold
pKd [9, 29]: below the threshold
pKd [10, 29]: below the threshold
pKd [11, 29]: 3.51
pKd [12, 29]: below the threshold
pKd [13, 29]: 4.4
pKd [14, 29]: 3.98
pKd [15, 29]: 3.92
pKd [16, 29]: below the threshold
pKd [17, 29]: 4.23
pKd [18, 29]: below the threshold
pKd [19, 29]: below the threshold
pKd [20, 29]: 4.08
pKd [21, 29]: 4.44
pKd [22, 29]: below the threshold
pKd [23, 29]: below the threshold
pKd [24, 29]: below the threshold
pKd [25, 29]: below the threshold
pKd [26, 29]: 4.83
pKd [27, 29]: below the threshold
Binder: QGRWDHETIV [TMEM215, Q68D42]
